According to US20190263922A1 (TIGA TX, published 2019):
Changes are numbered by the printed parent chain. Numbers in names are those of the source.

Columns and labels:
human CD20 [1] = target: T1, human CD20 (human, UniProt P11836 1-297); assay: LigandTracer Green, 10 nM FITC-labeled mAb on SKBR3-CD20 cells, OneToOne fit, non-competitive dissociation
T1 construct: whole, on cells; Always presented on cells; also called MS4A1; CD20 WT
T1 sequence (looked up): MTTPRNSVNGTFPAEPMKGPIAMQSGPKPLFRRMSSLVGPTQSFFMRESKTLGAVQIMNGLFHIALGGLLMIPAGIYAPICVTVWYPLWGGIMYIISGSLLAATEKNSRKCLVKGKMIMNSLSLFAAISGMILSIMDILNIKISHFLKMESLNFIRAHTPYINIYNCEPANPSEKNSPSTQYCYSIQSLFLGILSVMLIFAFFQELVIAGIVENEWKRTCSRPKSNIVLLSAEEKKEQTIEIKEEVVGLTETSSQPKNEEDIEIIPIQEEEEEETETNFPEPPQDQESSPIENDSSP
Procedure: (§1) Kinetics analysis of interactions between the mAbs and CD20 was performed by using the LigandTracer green Technology (Ridgeview Instruments AB). 10⁶ SKBR3-CD20 cells were seeded on one side of a 10 cm culture dish (Greiner) as target cell area and association of 10 nM FITC-labeled CD20 mAb was measured. For non-competitive or competitive dissociation, labeled mAb solution was replaced by RPMI culture medium or 100 nM unlabeled mAb of the same clone, respectively. Analysis was performed using an OneToOne fitting model in TraceDrawer (Ridgeview Instruments AB).
(§2) A slow Ab off-rate might favor the formation of Ab-Clq complexes, the first component of the classical complement pathway. […] To characterize interaction kinetics and affinity of mAbs, we used the LigandTracer technology to record real-time binding and dissociation of Abs to cellular receptors.

human CD20 [2] = target: T1, human CD20; assay: LigandTracer Green, 10 nM FITC-labeled mAb on SKBR3-CD20 cells, OneToOne fit, competitive dissociation (100 nM unlabeled mAb of the same clone)
Procedure: as §1, §2

human CD20 [3] = target: T1, human CD20; assay: binding assay, parental against L11V version, data not shown
human CD20 [4] = target: T1, human CD20; assay: FACS on Daudi cells, dilution series
Procedure: FIG. 8. […] Binding was determined by FACS after incubation of Daudi cells with a dilution series of mAb.
10⁵ Daudi cells were plated out in a 96-well plate and incubated with IgG1-CD20 mAbs (in PBS) for 45 min on ice. After washing, bound CD20 mAbs were detected with goat-F(ab′)₂-anti-hIgG-RPE (Southern Biotech) and subsequently measured on a FACS Canto II (BD).

human CD20 [5] = target: T1, human CD20; assay: FACS on Ramos cells, dilution series
human CD20 [6] = target: T1, human CD20; assay: FACS on Daudi cells
CD20 single mutant A170P = target: T2, CD20 single mutant A170P (human, UniProt P11836 1-297); assay: FACS, HEK293F cells transfected with CD20 A170P
T2 construct: whole, on cells
T2 sequence (looked up): T1 sequence (looked up) with A170P
Procedure: (§3) One day post-transfection, cells were harvested, washed in FACS buffer and stained for 30 min with 5 μg/mL CD20 mAbs on ice. mAb binding was detected with a goat-anti-hIgG-APC or goat-anti-mIgG-APC Ab (Jackson). Cells were measured on a FACS Canto II (BD).

[7] = target: T3, CD20 mutant T159K/N163D/N166D (human, UniProt P11836 1-297); assay: FACS, HEK293F cells transfected with CD20 T159K/N163D/N166D, 5 ug/mL mAb
T3 construct: whole, on cells; also called KDD
T3 sequence (looked up): T1 sequence (looked up) with T159K, N163D, N166D
Procedure: as §3
Therefore, we first performed a rough epitope mapping experiment with two CD20 mutants, with amino acids mutated in either the small (T159K/N163D/N166D) or larger (A170S/P172S) loop of CD20 (FIG. 4B).

B1: m2 (mIgG2c-CD20 mAb) (antibody, V domains shown)
VH: QAYLQQSGAELVRPGASVKMSCKASGYTFTSYNMHWVKQTPRQGLEWIGGIYPGNGDTSYNQKFKGKATLTVDKSSSTAYMQLSSLTSEDSAVYFCARYYYGSSYGAMDYWGQGTSVTVSS
VL: QIVLSQSPAILSASPGEKVTMTCRASSSVSYMHWYQQKPGSSPKPWIYATSNLASGVPARFSGSGSGTSYSLTISRVEAADAATYYCHQWTFNPPTFGGGTKLEIK
modifications: FITC- or Alexa647-labelled in the kinetic assays; label sites not given
notes: Mouse IgG2c hybridoma mAb; FITC- or Alexa647-labeled in the kinetic assays
- Kd (human CD20 [1]): 0.21 nM
- koff (human CD20 [1]): 1.77e-05 s⁻¹
- kon (human CD20 [1]): 85400 M⁻¹ s⁻¹
- Kd (human CD20 [2]): 0.96 nM
- koff (human CD20 [2]): 7.8e-05 s⁻¹
- kon (human CD20 [2]): 81700 M⁻¹ s⁻¹

B2: IgG1-CD20-1 with the L11V mutation (antibody)
heavy: not shown
light: QIVLSQSPAVLFASPGEKVTMTCRARSSVSYMDWYQQKPRSSPKPWIYATSNLASGVPARFSGSGSGTSYSLTISRVEAEDAATYYCQQWTSNPPTFGSGTKLEIKRTVAAPSVFIFPPSDEQLKSGTASVVCLLNNFYPREAKVQWKVDNALQSGNSQESVTEQDSKDSTYSLSSTLTLSKADYEKHKVYACEVTHQGLSSPVTKSFNRGEC
notes: Chimeric human IgG1/kappa; leucine to valine at Kabat position 11 of the VH framework; also called IgG1-CD20-1 L11V
- binding result (human CD20 [3]): binds

B3: IgG1-CD20-2 with the L11V mutation (antibody)
heavy: not shown
light: B2 light with V10I, F12S, R26S, D33H, R40G, E80A, Q88H, S92F, S99G
notes: Chimeric human IgG1/kappa; leucine to valine at Kabat position 11 of the VH framework; also called IgG1-CD20-2 L11V
- binding result (human CD20 [3]): binds

B4: IgG1-CD20-7 (antibody, V domains shown)
VH: QAYLQQSGAELVRPGASVKMSCKASGYTFASYNMHWIKQTPRQGLEWIAAIYPGNGDTSYNQKFKGKATLTVDKSSSTAYMQLSSLTSEDSAVYFCARTYYYGSSPYWSFDVWGTGTTVTVSS
VL: DIQMTQSPASLSASVGETVTVTCGASYNIYGALNWYQRKQGKSPQLLIYGATNLADGMSSRFSGSGSGRQYSLKISSLHPDDVATYYCQNVLSNPPTFGGGTKLEIKR
notes: Chimeric: human IgG1 constant region and human kappa light chain; also called chimerized version of m7
- binding result (human CD20 [4]): binds

B5: IgG1-CD20-9 (antibody, V domains shown)
VH: QAYLQQSGAELVRPGASVKMSCKASGYTFPSYNMHWVKQTPRQGLEWIGAIYPGNGDTSYNQKFKGKASQTVDKSSSTVYMQLSSLTSADSAVYFCARSRLFDSSYGWYFDVWGTGTTVTVSS
VL: QIVLSQSPAILSAYPGEKVTMTCRARSSVSYIDWYQQKAGSSPKPWIYATSNLASGVPARFSGSGSGTSYSLTISRVEAEDAATYYCQQWTSNPPTFGGGTKLEIKR
notes: Chimeric: human IgG1 constant region and human kappa light chain; also called chimerized version of m9
- binding result (human CD20 [4]): binds

B6: IgG1-CD20-10 (antibody, V domains shown)
VH: QAYLQQSGADLVRPGASVKMSCKASGFTFPSYNLHWVKQTPRQGLEWIGAIYPGNGDTSYNQKFKGKATLTVDKSSSTAYMQLSSLTSEDSAVYFCARSAYYGSNVWFFDVWGTGTTVTVSS
VL: B5 VL with Y14S, R26S, I32M, A39P, A59T, T91I, G99A, E104D, I105L
notes: Chimeric: human IgG1 constant region and human kappa light chain; also called chimerized version of m10
- binding result (human CD20 [4]): binds

B7: IgA2 variant of m1 (IgA-CD20-1 as IgA2(m1)) (antibody)
heavy: QAYLQQSGAELVRPGASVKMSCKASGYTFTSYNLHWVKQTPRQGLEWIGAIYPGNGDTSYNQKFKGKATLTVDKSSSTAYMQLSRLTSEDSAVYFCARSNSYGSTYWYFDVWGTGTTVTVSSASPTSPKVFPLSLDSTPQDGNVVVACLVQGFFPQEPLSVTWSESGQNVTARNFPPSQDASGDLYTTSSQLTLPATQCPDGKSVTCHVKHYTNPSQDVTVPCPVPPPPPCCHPRLSLHRPALEDLLLGSEANLTCTLTGLRDASGATFTWTPSSGKSAVQGPPERDLCGCYSVSSVLPGCAQPWNHGETFTCTAAHPELKTPLTANITKSGNTFRPEVHLLPPPSEELALNELVTLTCLARGFSPKDVLVRWLQGSQELPREKYLTWASRQEPSQGTTTFAVTSILRVAAEDWKKGDTFSCMVGHEALPLAFTQKTIDRLAGKPTHVNVSVVMAEVDGTCY
light: B2 light
notes: Monomeric human IgA2(m1) constant region (pEE14.4-IgA2(m1)) and human kappa light chain; also called IgA2-CD20 mAb; IgA2-CD20 UMAB001
- binding result (human CD20 [5]): binds

B8: IgA2 variant of m2 (IgA-CD20-2 as IgA2(m1)) (antibody)
heavy: QAYLQQSGAELVRPGASVKMSCKASGYTFTSYNMHWVKQTPRQGLEWIGGIYPGNGDTSYNQKFKGKATLTVDKSSSTAYMQLSSLTSEDSAVYFCARYYYGSSYGAMDYWGQGTSVTVSSASPTSPKVFPLSLDSTPQDGNVVVACLVQGFFPQEPLSVTWSESGQNVTARNFPPSQDASGDLYTTSSQLTLPATQCPDGKSVTCHVKHYTNPSQDVTVPCPVPPPPPCCHPRLSLHRPALEDLLLGSEANLTCTLTGLRDASGATFTWTPSSGKSAVQGPPERDLCGCYSVSSVLPGCAQPWNHGETFTCTAAHPELKTPLTANITKSGNTFRPEVHLLPPPSEELALNELVTLTCLARGFSPKDVLVRWLQGSQELPREKYLTWASRQEPSQGTTTFAVTSILRVAAEDWKKGDTFSCMVGHEALPLAFTQKTIDRLAGKPTHVNVSVVMAEVDGTCY
light: B2 light with V10I, F12S, R26S, D33H, R40G, E80A, Q88H, S92F, S99G
notes: Monomeric human IgA2(m1) constant region (pEE14.4-IgA2(m1)) and human kappa light chain; also called IgA2-CD20 mAb; IgA2-CD20 UMAB002
- binding result (human CD20 [5]): binds

B9: IgA1 variant of m1 (IgA-CD20-1 as IgA1) (antibody)
heavy: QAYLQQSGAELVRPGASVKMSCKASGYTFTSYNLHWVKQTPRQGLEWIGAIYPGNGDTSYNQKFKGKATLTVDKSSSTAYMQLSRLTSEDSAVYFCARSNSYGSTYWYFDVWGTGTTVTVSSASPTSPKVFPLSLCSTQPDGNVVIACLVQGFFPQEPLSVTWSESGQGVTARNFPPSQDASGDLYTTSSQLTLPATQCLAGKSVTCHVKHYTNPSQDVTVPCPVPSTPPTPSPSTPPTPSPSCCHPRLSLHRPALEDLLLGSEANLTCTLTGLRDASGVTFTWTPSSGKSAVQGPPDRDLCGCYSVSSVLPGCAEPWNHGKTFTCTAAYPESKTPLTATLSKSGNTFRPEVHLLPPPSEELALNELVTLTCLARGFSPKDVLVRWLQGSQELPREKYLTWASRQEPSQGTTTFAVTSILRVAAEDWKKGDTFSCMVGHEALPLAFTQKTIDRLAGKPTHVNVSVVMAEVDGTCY
light: B2 light
notes: Monomeric human IgA1 constant region (pEE14.4-IgA1) and human kappa light chain; also called IgA1-CD20 mAb; IgA1-CD20 UMAB001
- binding result (human CD20 [5]): binds

B10: IgA1 variant of m2 (IgA-CD20-2 as IgA1) (antibody)
heavy: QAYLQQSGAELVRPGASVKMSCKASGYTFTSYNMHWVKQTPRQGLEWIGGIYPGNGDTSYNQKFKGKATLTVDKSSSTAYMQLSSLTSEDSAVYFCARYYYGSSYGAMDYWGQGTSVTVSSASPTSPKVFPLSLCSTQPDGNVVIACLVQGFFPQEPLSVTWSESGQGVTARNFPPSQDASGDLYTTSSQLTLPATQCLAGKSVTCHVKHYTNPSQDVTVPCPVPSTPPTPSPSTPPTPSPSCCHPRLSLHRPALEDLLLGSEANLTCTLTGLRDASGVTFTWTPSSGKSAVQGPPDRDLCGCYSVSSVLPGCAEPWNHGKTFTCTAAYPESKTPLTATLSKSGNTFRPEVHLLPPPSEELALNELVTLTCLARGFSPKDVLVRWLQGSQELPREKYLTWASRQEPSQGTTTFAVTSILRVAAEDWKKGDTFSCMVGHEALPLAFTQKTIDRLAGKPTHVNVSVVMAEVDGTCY
light: B2 light with V10I, F12S, R26S, D33H, R40G, E80A, Q88H, S92F, S99G
notes: Monomeric human IgA1 constant region (pEE14.4-IgA1) and human kappa light chain; also called IgA1-CD20 mAb; IgA1-CD20 UMAB002
- binding result (human CD20 [5]): binds

B11: m9 (mIgG2c-CD20 mAb) (antibody, V domains shown)
VH: B5 VH
VL: B1 VL with S14Y, S26R, M32I, H33D, P39A, A80E, H88Q, F92S
modifications: FITC-labelled antibody in the LigandTracer assay; the label positions are not defined.
notes: Mouse IgG2c hybridoma mAb; FITC-labeled in LigandTracer
- Kd (human CD20 [1]): 0.25 nM
- koff (human CD20 [1]): 1.13e-05 s⁻¹
- kon (human CD20 [1]): 45700 M⁻¹ s⁻¹
- Kd (human CD20 [2]): 0.12 nM
- koff (human CD20 [2]): 6.53e-06 s⁻¹
- kon (human CD20 [2]): 53900 M⁻¹ s⁻¹

B12: m10 (mIgG2c-CD20 mAb) (antibody, V domains shown)
VH: B6 VH
VL: B1 VL with H33D, A59T, A80E, H88Q, T91I, F92S, G99A, E104D, I105L
modifications: FITC-labelled in the LigandTracer assay; label sites not given
notes: as for B11
- Kd (human CD20 [1]): 0.19 nM
- koff (human CD20 [1]): 8.17e-06 s⁻¹
- kon (human CD20 [1]): 44200 M⁻¹ s⁻¹
- Kd (human CD20 [2]): 0.51 nM
- koff (human CD20 [2]): 2.82e-05 s⁻¹
- kon (human CD20 [2]): 55700 M⁻¹ s⁻¹

B13: m7 (mIgG2b-CD20 mAb) (antibody, V domains shown)
VH: B4 VH
VL: DIQMTQSPASLSASVGETVTVTCGASYNIYGALNWYQRKQGKSPQLLIYGATNLADGMSSRFSGSGSGRQYSLKISSLHPDDVATYYCQNVLSNPPTFGGGTKLEIK
notes: Mouse IgG2b hybridoma mAb
- binding result (human CD20 [6]): binds
- binding result (CD20 single mutant A170P): binds
- binding result [7]: binds
